Values of other authors in publication PMC2662774.

Assays:
[1] = target: CXCR4 1-38 (sY21 P38) 1-38 (Homo sapiens) (UniProt P61073); experiment: NMR
[2] = target: CXCR4 sY21 P38 peptide 1-38 (Homo sapiens) (UniProt P61073); experiment: NMR titration

Sequence of SDF-1α (P48061 24-88): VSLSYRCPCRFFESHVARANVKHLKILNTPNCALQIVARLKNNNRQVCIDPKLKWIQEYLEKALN

Kd [1]: 1300 nM
Kd [2]: 1300 nM
Substance: SDF-1α (from UniProt P48061)
